Measured values from article PMC6238601, “Specificity for deubiquitination of monoubiquitinated FANCD2 is driven by the N-terminus of USP1” (Life Science Alliance, 2018).
Positions count from the first letter of the chain named. Numbers in names are those of the source.

B1: USP1^ΔNΔ1Δ2 (Δ1–54, Δ229–408, Δ608–737), Sf21-expressed (domain or fragment, human, UniProt O94782 55-785, looked up)
chain: SEIDQVVPAAQSSPINCEKRENLLPFVGLNNLGNTCYLNSILQVLYFCPGFKSGVKHLFNIISRKKEALKDEANQKDKGNCKEDSLASYELICSLQSLIISVEQLQASFLLNPEKYTDELATQPRRLLNTLRELNPMYEGYLQHDAQEVLQCILGNIQETCQLLKKEEVKNVAENEVKPINKGEEQIGFELVEKLFQGQLVLRTRCLECESLTERREDFQDISVPVQEDELSKVEESSEISPEPKTEMKTLRWAISQFASVERIVGEDKYFCENCHHYTEAERSLLFDKMPEVITIHLKCFAASGLEFDCYGGGLSKINTPLLTPLKLSLEEWSTKPTNDSYGLFAVVMHSGITISSGHYTASVKVTDLNSLEQSLKEYEGKWLLFDDSEVKVTEEKDFLNSLSPSTSPTSTPYLLFYKKL
notes: USP1, human; N-terminus (Δ1–54), Insertion 1 (Δ229–408) and Insertion 2 (Δ608–737) deleted in the full-length background; the G670A/G671A site lies in the deleted Insertion 2; also called minimal USP1 catalytic domain; catalytic domain of USP1; source: Sf21 (baculovirus), purified (Ni-NTA, anion exchange, SEC)
B2: USP1^ΔNΔ1Δ2 (Δ1–54, Δ229–408, Δ608–737), E. coli-expressed (domain or fragment, human, UniProt O94782 55-785, looked up)
chain: B1 chain
notes: USP1, human; Δ1–54, Δ229–408, Δ608–737; also called E. coli–expressed USP1^ΔNΔ1Δ2; source: E. coli BL21, purified (GSH resin, SEC)
B3: USP1^ΔNΔ1Δ2–UAF1 complex (Strep-tagged UAF1) (complex)
chain 1: B1 chain
chain 2: not shown
notes: USP1, human; Δ1–54, Δ229–408, Δ608–737; as m9; UAF1, human; as m7; Bait complex formed beforehand and held on MagStrep beads; source: E. coli USP1^ΔNΔ1Δ2 complexed with Sf21 Strep-UAF1, both purified; not shown: Strep11, N-terminal, kept
B4: USP1^Δ1Δ2-R22K–UAF1 complex (Strep-tagged UAF1) (complex)
chain 1: MPGVIPSESNGLSRGSPSKKNKLSLKFFQKKETKRALDFTDSQENEEKASEYRASEIDQVVPAAQSSPINCEKRENLLPFVGLNNLGNTCYLNSILQVLYFCPGFKSGVKHLFNIISRKKEALKDEANQKDKGNCKEDSLASYELICSLQSLIISVEQLQASFLLNPEKYTDELATQPRRLLNTLRELNPMYEGYLQHDAQEVLQCILGNIQETCQLLKKEEVKNVAENEVKPINKGEEQIGFELVEKLFQGQLVLRTRCLECESLTERREDFQDISVPVQEDELSKVEESSEISPEPKTEMKTLRWAISQFASVERIVGEDKYFCENCHHYTEAERSLLFDKMPEVITIHLKCFAASGLEFDCYGGGLSKINTPLLTPLKLSLEEWSTKPTNDSYGLFAVVMHSGITISSGHYTASVKVTDLNSLEQSLKEYEGKWLLFDDSEVKVTEEKDFLNSLSPSTSPTSTPYLLFYKKL
chain 2: not shown
notes: USP1, human; Δ229–408, Δ608–737, R22K; as m11; UAF1, human; as m7; source: E. coli USP1^Δ1Δ2-R22K complexed with Sf21 Strep-UAF1, both purified; not shown: Strep11, N-terminal, kept
B5: USP1^Δ1Δ2 (Δ229–408, Δ608–737), E. coli-expressed (enzyme, human, UniProt O94782 1-785, looked up)
chain: B4 chain 1 with K22R
notes: USP1, human; Insertion 1 (Δ229–408) and Insertion 2 (Δ608–737) deleted; gene synthesised and optimised for E. coli; GST-3C tag from pGEX6P; a few residues of the 3C site may be left after cleavage (surmise); also called E. coli–expressed USP1^Δ1Δ2; source: E. coli BL21, purified (GSH resin, SEC)
B6: USP1^Δ1Δ2–UAF1 complex (Strep-tagged UAF1) (complex)
chain 1: B4 chain 1 with K22R
chain 2: not shown
notes: USP1, human; Δ229–408, Δ608–737; as m8; UAF1, human; as m7; Bait complex formed beforehand and held on MagStrep beads; also called UAF1–USP1; USP1–UAF1; source: E. coli USP1^Δ1Δ2 complexed with Sf21 Strep-UAF1, both purified; not shown: Strep11, N-terminal, kept
B7: USP1^Δ1Δ2-L25A–UAF1 complex (Strep-tagged UAF1) (complex)
chain 1: B4 chain 1 with K22R, L25A
chain 2: not shown
notes: USP1, human; Δ229–408, Δ608–737, L25A; as m12; UAF1, human; as m7; source: E. coli USP1^Δ1Δ2-L25A complexed with Sf21 Strep-UAF1, both purified; not shown: Strep11, N-terminal, kept
B8: USP1^Δ1Δ2-R22K, E. coli-expressed (enzyme, human, UniProt O94782 1-785, looked up)
chain: B4 chain 1
notes: USP1, human; Δ229–408, Δ608–737, R22K; source: E. coli BL21, purified (GSH resin, SEC)
B9: USP1^Δ1Δ2-R22A, E. coli-expressed (enzyme, human, UniProt O94782 1-785, looked up)
chain: B4 chain 1 with K22A
notes: USP1, human; Δ229–408, Δ608–737, R22A; source: E. coli BL21, purified (GSH resin, SEC)
B10: USP1^Δ1Δ2-L25A, E. coli-expressed (enzyme, human, UniProt O94782 1-785, looked up)
chain: B4 chain 1 with K22R, L25A
notes: USP1, human; Δ229–408, Δ608–737, L25A (one of the alanine point mutants of the N-terminus); source: E. coli BL21, purified (GSH resin, SEC)

Experiments:
Settings in all cases: both partners purified
[1] = target: T1, UAF1 (USP1-associated factor 1) (human, UniProt Q8TAF3 1-677); experiment: SEC; USP1 and UAF1 alone or together at 15 μM, 15 min on ice; SD200 Increase (10/300); 20 mM Tris pH 8.0, 150 mM NaCl, 5% glycerol, 5 mM DTT; fractions on SDS-PAGE, Coomassie
T1 construct: UAF1 (USP1-associated factor 1), human; N-terminal His-3C tag; the methods say tags were removed except from FANCD2, FANCI, USP2 and GST-ubiquitin; source: Sf21 (baculovirus), purified (Ni-NTA, anion exchange, SEC); not shown: His, N-terminal, cleaved

[2] = target: T2, UAF1 with an N-terminal Strep tag (human, UniProt Q8TAF3 1-677); experiment: pull-down; N-terminal Strep-tagged UAF1 complexed with E. coli USP1, 10 μg bound to MagStrep beads and washed; 10 μg recombinant substrate, 1 h on ice; 50 mM Tris pH 7.5, 120 mM NaCl, 5% glycerol, 1 mM DTT, 0.01% Triton X-100, 0.01% ovalbumin; SDS-PAGE; beads without USP1–UAF1 as control
T2 construct: UAF1 (USP1-associated factor 1), human; Strep11 tag and linker GGSGGS were added N-terminal of the His-3C tag; as the Strep tag is used for capture, the His-3C stretch was probably kept too (surmise); also called Strep-tagged UAF1; N-terminal Strep-tagged UAF1; source: Sf21 (baculovirus), purified; not shown: Strep11, N-terminal, kept

[3] = target: T3, human PCNA-K164Ub (hsPCNA-Ub) (human | , UniProt P12004 1-261; P0CG48 1-76, K164 monoubiquitinated (isopeptide bond to ubiquitin) | C-terminus linked to K164 of PCNA); experiment: as above
T3 construct: PCNA, human; ubiquitin; Covalent conjugate; also called monoubiquitinated PCNA

[4] = target: T4, human FANCD2 (hsFANCD2), non-ubiquitinated (human, UniProt Q9BXW9 1-1451); experiment: as above
T4 construct: FANCD2 (Fanconi anemia group D2 protein), human, full length; gene synthesised and optimised for Spodoptera frugiperda; His-3C tag; tags were not removed from FANCD2; also called Fanconi anemia group D2 protein; source: Sf21 (baculovirus), purified (Ni-NTA, anion exchange, SEC)

Binder	binding result [2]	also measured
B1		binding result [1]: binds
B2	binds	
B3		binding result [3]: binds
B4		binding result [4]: binds
B5	binds	
B6		binding result [3]: binds
B7		binding result [4]: binds
B8	binds	
B9	binds	
B10	binds	
